This data set deals with the molecule itself. Nature of the data set: FTIR spectroscopy; peptides at 1 and 0.1 mg/ml in PBS, 8 μl dried as thin films on the ATR surface; spectra 1800-1500 cm^-1; peaks at 1621 and 1695 cm^-1 read as antiparallel β-sheet assembly.

B1: synthetic peptide P1 (peptide)
peptide: PARKARAATAATAATAATAATAAT
notes: 24-amino acid synthetic peptide designed with repeated motifs of the Ixodes tick antifreeze glycoprotein (IAFGP); Not the streptococcal adhesin P1 (AgI/II, PAc); also called antivirulence peptide P1; source: synthetic peptide (Genscript, >80% purity)
B1: the binding result is on record as “binds”.

Source of the values: paper PMC5364132, “Anti-Biofilm Activity of a Self-Aggregating Peptide against Streptococcus mutans” (Frontiers in Microbiology, 2017).
